Earlier results, collected in publication PMC3377446.

Target: PDL1 (Homo sapiens) (UniProt Q9NZQ7)
Sequence of UniProt Q9NZQ7 (Q9NZQ7 19-238): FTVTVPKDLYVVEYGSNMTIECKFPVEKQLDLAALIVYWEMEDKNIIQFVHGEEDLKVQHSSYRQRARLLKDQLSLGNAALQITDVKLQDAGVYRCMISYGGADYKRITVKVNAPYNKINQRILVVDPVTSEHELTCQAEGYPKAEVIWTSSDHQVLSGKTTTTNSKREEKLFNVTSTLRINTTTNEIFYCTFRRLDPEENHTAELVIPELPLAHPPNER

Question: With CD80 (from UniProt P33681) as the substance, how does the Kd read?
Answer: The Kd was 1400 nM.
